Experiment: soluble on expression in E. coli; label from the status in PepcDB or PDB records

Sequence	soluble on expression in E. coli
MGSDKIHHHHHHMRILLTGIPSYLQRTVSGVSGAEVRHRPYFDEVRTKKELIEQVKKIANTGNYLIGEGAAHALRGHDVTYLPFWHLVNSRNSDEAYESLNEEFDICVFASANLLRPGYSADLEAEVFEKLKMPVVIMGIGIQRREGLKENLPAGTLKFLEVLRNKESFFLTRGYFTAEFLREQGMKFVKPTGCPSLFFAPAEMKRSLAALANPELASSQKIAFGGYLGSVADTIVDAHALLKPDSVASYVIQDEVVAYNLSLPVDDDLPVYDRASGRITGQTAYKHSEKWQRKHELLVFFDTNQWRSWVSARDLCFGRRFHGCIIGMQAGVPSLMIAVDDRMREMLEFIGFPYMEAAVWNREQDRKAYLASFLSKIDSQAVIDRYSACETNFRNALAHVGL	not soluble
MSHLRIPANWKVKRSTPFFTKENVPAALLSHHNTAAGVFGQLCVMEGTVTYYGFANETATEPEVKVVINAGQFATSPPQYWHRVELSDDARFNIHFWVEEDHQGEEMYQQKKALEHHHHHH	soluble
MLGLKTSIIGRRVIYFQEITSTNEFAKTSYLEEGTVIVADKQTMGHGALNRKWESPEGGLWLSIVLSPKVPQKDLPKIVFLGAVGVVETLKEFSIDGRIKWPNDVLVNYKAIAGVLVEGKGDKIVLGIGLNVNNKVPNGATSMKLELGSEVPLLSVFRSLITNLDRLYLNFLKNPMDILNLVRDNMILGVRVKILGDGSFEGIAEDIDDFGRLIIRLDSGEVKKVIYGDVSLRFL	soluble
MGSDKIHHHHHHMSQFEQDAHLKQQSDRALSDHELQADHTRQKTHELPAHFDFQQAGKQVLSIERDGLAQLDQYIDDNFTLACKNIFHCKGKVVVMGMGKSGHIGCKIAATFASTGTPAFFVHPGEASHGDLGMVTPHDIVIAISNSGESHEILSLIPVLKRQKVFLICMTSAPESTMGKAADIHLCVHVPQEACPLGLAPTTSTTATLVMGDALAVALLQARGFTAEDFALSHPGGALGRKLLLRVSDIMHSGDEIPHVPHDASLRDALVEITRKNLGMTVICEADMKIQGIFTDGDLRRIFDMNIDLNSARIADVMTAGGIRVAPQTLAVDALNLMQSRHITSVLVAENDRLVGIVHMHDMLRAGVV	not soluble
MSEPFSVPVTVRGYETDTQGHLNQSVYLNYAEHARWSLLQAAGIRQADLVARGVGPVALETTIRFQRELLAGDEVTVTCAFEWGTGKTFRIRQLVTKADGTVAAEIEAVGGLMDLGERRLVPDPRQRFKELAARPELFGLLEHHHHHH	not soluble
MKIALINENSQAAKNGIIYDALTTVTDKHGYQVFNYGMYGTEGESQLTYVQNGLLASILLTTKAADFVVTGCGTGVGAMLALNSFPGVTCGFASEPTEAYLFSQINGGNALSIPFAKGFGWGAELNLTLIFERLFAEPMGGGYPKERAIPEQRNARILSDLKKITYRDLLAIVKDIDQDFLKETISGAHFQEYFFANAEPSELVTYLKSVLEQ	not soluble
MGYNTIPAGKDLPNDIYVAIEIPANASPIKYEIDKDMDALLVDRFMATPMFYPANYGYINNTLADDGDALDVLVITPYPVAPGSVIRARPVGVLKMSDEAGGDEKLLAVPHEKLTQLYNDIHDIDDVPQLLKDQIVHFFEHYKDLEKGKWVKVEGWENADAARAAIVKSAAAYKG	soluble
MGHHHHHHSHMAGAQPGVHALQLKPVCVSDSLKKGTKFVKWDDDSTIVTPIILRTDPQGFFFYWTDQNKETELLDLSLVKDARCGRHAKAPKDPKLRELLDVGNIGRLEQRMITVVYGPDLVNISHLNLVAFQEEVAKEWTNEVFSLATNLLAQNMSRDAFLEKAYTKLKLQVTPEGRIPLKNIYRLFSADRKRVETALEACSLPSSRN	not soluble
SVRRKSCIVKEMEKMKNKREEKRAQNSELRIKRAQEYDSSFPNWEFARMIKEFRVTMECSPLTVTDPIEEHRICVCVRKRPLNKQELAKKEIDVISVPSKCLLLVHEPKLKVDLTKYLENQAFCFDFAFDETASNEVVYRFTARPLVQTIFEGGKATCFAYGQTGSGKTHTMGGDLSGKSQNASKGIYAMASRDVFLLKNQPRYRNLNLEVYVTFFEIYNGKVFDLLNKKAKLRVLEDSRQQVQVVGLQEYLVTCADDVIKMINMGSACRTSGQTFANSNSSRSHACFQILLRTKGRLHGKFSLVDLAGNERGADTSSADRQTRMEGAEINKSLLALKECIRALGQNKAHTPFRESKLTQVLRDSFIGENSRTCMIAMISPGISSCEYTLNTLRYADRVKELSHHHHHHH	soluble
TSKQRYSGKVHLCVARYSYNPFDGPNENPEAELPLTAGKYLYVYGDMDEDGFYEGELLDGQRGLVPSNFVDFVQDNESRLAST	soluble
MSLKRLIMATMVTAILASSTVWAADNAPVAAQQQTQQVQQTQKTAAAAERISEQGLYAMRDVQVARLALFHGDPEKAKELTNEASALLSDDSTEWAKFAKPGKKTNLNDDQYIVINASVGISESYVATPEKEAAIKIANEKMAKGDKKGAMEELRLAGVGVMENQYLMPLKQTRNALADAQKLLDKKQYYEANLALKGAEDGIIVDSEALFVNEGHHHHHH	soluble
MKHLTASEVRSTFINFFREKKEHTYVHSSSVIPHDDPTLLFANAGMNQFKPLFLGIADPNSDLAKLKRAVNTQKCIRAGGKHNDLDDVGKDVYHHTYFEMLGNWSFGDYFKKEIITWAWELLTTVYGIPAERLYVSVFGGDEANGVPADSEARDIWRSVGVPDERILNFGMKDNFWEMGDVGPCGPCSEIHYDRIGNRDASHLVNADDPMVVEIWNLVFIQFNREEGGVLKPLPAKHIDCGLGLERLIAVMQDKTSNYDTDIFQPIFEAIHKGSGVRAYTGFIGDEDKDGVDMAYRVVADHVRTLTIALSDGGRPDNSGRGYVLRRILRRGVRYASEKLNAQPGFFASLVPVVISILGETFPELSRDPVTVMDIINDEEKQFLKTLSRGRVLFQRAVQSLPEGTMTFPGDVSWRLYDTYGFPADLTQLMAEEKGLSVDNTAFEEARRKAIETSSAGTGKFRDTLDLDVHALAELQQKGVPTTDDSPKYAYTFTGEGSDAVYKFEPCVGKILAIRRDGKFVDQLAAGEEGAILLDRTNFYAEQGGQIYDVGVLTKVNDESNEFNVSNCQVRGGYIVLVGSAEGSFSVGDQVNERFDEDRKQLIMKNHTGTHVLNYALRKVLADSDQKGSLVAPDRMRFDFTNKAGMTVQQVKKAEEYAQQLIDTKGQVYAKNSPLGEAKKVKGLRAMFDETYPDPVRVVAVGTPVEQLLQNPDAEEGQNTTVEFCGGTHLQNVSHIGRIVIASEEAIAKGIRRIVALTGPEAERAIARADRLTARLEEESKHADKKDELLANKDKFKALQKKIQEIVDEANGAQLPYWRKDSIREKAKAIQKTLDGYTKAQQAAVAEKVLGEAKELAAVAEQPTVLVHVFAANANSKAIDNALKLLKDTKAVMAFSVNEDSGKVLCLAKVDKSLVSNGLKANEWVNEVCTVLGGKGGGKDANAQLTGENVDKLDAAVELAQKFALAAIN	soluble
MISVFDIYKIGVGPSSSHTVGPMKAGKEFIDDLRAMGKLRDITKITVDVYGSLSLTGKGHHTDIAIIMGLAGNSPEKVDIDSIPGFIARVEETERLPVGMHCHTVSFPREGGMNFHKTNLELHENGMQIHAWIDDEKVYSKTYYSIGGGFIVDEENFGK	not soluble
MTFEEKRKHLETTYPNKRTPESRAKSREILKLIADNLEMFPIASPESSSSKAKTDPMSRLEHGSEFNDLTVPRVEKLTPVSELYSIENTSLKFGTEDDFSDLSYSNTSPFQSVSTLYDQPSTPFSDDSDLEATPRTCVQ	not soluble
SLSGNGFDAILALSHRTSHTTYGNPFFSDVIQSISAVSEQNNFDLILQTAKTPEEELEKCAKKIQEKMIRGIIILSSTMDETLLFELDQYNIPIVVIGKVGNDYTNIYSVDTDNFQDSYDLVETLIKNGHRHIGCLHAPTEVYVSNDRLNGYRQCLFDHHLDIRNEWIIDGGFRLEDSMAAMNDLMKLRERPTAIFSTDALKSLSIYKVAEQSGKQIPDDLSIAGFSDPLLSSLFSPQLTRIDIPTNQLGIKATELLFQLIHHQYPEEKRIILSTEITLTDSI	soluble
MGHHHHHHGGHMSLTDVNVKIDIMHPQPIVGLGNPAIFVQGSTQNYKEYTSLETLAKDFATTTTVYKKAEIIWKQENKPQTIAVVTFVADTPTSPEQPDSLIAGSGIIAAATSYFYNDWHFALLANFVEADALALSNLIEENEFKFLVIQTATVDELTVFTGNNLTIGLVHPLEEFLDAALIGNTASLTVGSVTWKFRHNLVGITPNTLTTSQLQAIEKANAIAYVSKAGIPQTSEGKTMSGEFIDALHGDHWVKSNIETNVQRLLSTTDKLTFDSNGIALLDTTVANVLETAFNNGIVDIVDETGVGNYSVTALGRQDLNPDDIAARNYKGLSFKYKRSGAIHTVDVTGTIEVEGGS	soluble
MVSDIVLEVQSLHVYYGAIHAIKGIDLKVPRGQIVTLIGANGAGKTTTLSAIAGLVRAQKGKIIFNGQDITNKPAHVINRMGIALVPEGRRIFPELTVYENLMMGAYNRKDKEGIKRDLEWIFSLFPRLKERLKQLGGTLSGGEQQMLAIGRALMSRPKLLMMDEPSLGLAPILVSEVFEVIQKINQEGTTILLVEQNALGALKVAHYGYVLETGQIVLEGKASELLDNEMVRKAYLGVA	soluble
GSHPLGDTSDASKLSSDYSLPDLINTRKVPNNWQTGEQASLEEGRIVLTSNQNSKGSLWLKQGFDLKDSFTMEWTFRSVGYSGQTDGGISFWFVQDSNIPRDKQLYNGPVNYDGLQLLVDNNGPLGPTLRGQLNDGQKPVDKTKIYDQSFASCLMGYQDSSVPSTIRVTYDLEDDNLLKVQVDNKVCFQTRKVRFPSGSYRIGVTAQNGAVNNNAESFEIFKMQFFNGVIEDSLIPNVNAMGQPKLITKYIDQQTG	soluble
MIDFRPFYQQIATSHLSAWLETLPLQLKQWEKTAHSDYAKWAKIATSMPTSPTSINLTDKVEAVLAEALPEGEKQYLIYRLKQLMPWRKGPYHLHGVHIDTEWRSDFKWQRVLPHLAPLKDRTILDVGCGNGYHMWRMVGEDAQMVVGIDPTELFLCQFEAVRQLLGNDRRANLIPLGLEQMQPLAAFDTVFSMGVLYHRKSPLDHLSQLKAQLVKGGELVLETLIIDGDINDILTPADRYAKMKNVYFIPSVAALINWLKKIGFKNARCVDQSVTTLAEQRKTEWLENESLVDFLDPTDQRKTIEGLPAPKRAVILANA	not soluble
MSRSSLVDPSFELSDPCPDIHALFIQFDARFFGGSLACCEVKWSPRMYACAGICSYEIRGGRGGLCSIRLSKPLLTLRPRSDLVETLLHEMIHAYLFVKERNRDRDGHGPQFQAHMHRINQAGGTNITIYHSFHDEVRLYKQHWWRCSGPCRDRRPFFGYVKRSCNRAPGPNDRWWSQHQQSCGGNFLKVKEPEGYGQGKGSKRTNDKNKSGGPALKKTITPPRVTLDDFFKKDGKNSSDNSTSKSPTKPSTSLFTGSGQKLGGSSSTSSLLNSYPKATQNSGGNRLGGTSGGVSRLLPPVNFTSPSSAPVAEQVIDLGDSDDDDFQDMDDDALEISFVASDNSVICPSCNTEVMENLIHGHLDYCLG	not soluble
MGSDKIHHHHHHMAKAFASQGDMSEKKISFTEVGEGLYAFTAEGDPNSGVIIGDDSVMVVEAQATPRLAQKVIDCIREVTDKPISHVVLTHYHAVRVLGASAFGAGQVIMSDTARSMVVERGQEDWDSEFQRFPRLFEGHESIPGLTWPTTTFSDSMTVYLGKRRVDIMHLGRAHTAGDAVIHVPDQNVMFTGDIVEYHSACYCGDGHFNDWGNTLDNIAWFDVDAIAPGRGDALVGKEMVNAAIENTRDFVQSTYRPAARVAARGGSLKEAWDAVRAECDPKFADYAIYEHCLPFNVARAYDEARGIDTPRIWTAQRDLEMWEALQG	not soluble
MLKLKFNEEGLIPVIAQDYRTGEVRMLAYANEEAIKKTLETGYAHYYSRSRKKIWKKGETSGELQKVIEVRVDCDEDALIYVIEQEKDRACHTGERNCFFRDIEGNKVEKPLPFEVLPRLQDVIREKIERKEENSYTAKLVSQGKERVFQKFGEEAVETLIALMKGEKEEVIYESADMLYTFLVSLSVSGIDIKEVMEELIRRFK	soluble
